Data taken from patent US9157067B2, “Pluripotent cells from mammalian late epiblast layer” (priority 2006, dated 2015).

What was measured:
[1] = tested on: rat epiblast layers; test: Derivation of EpiSC lines from rat epiblast layers; assay type: cell-based
From the text: The hypothesis that Activin and FGF signalling in pluripotency are conserved in mammalian development is supported by the ability of Activin/Nodal signalling to maintain long-term pluripotency of both human ESCs and mouse EpiSCs. As a further test of this hypothesis, we attempted to derive EpiSCs from rats, a species from which embryonic stem cell derivation has been problematic. Following the method we established in the mouse, epiblast layers were dissected from rat embryos at pre-gastrula stages (E 7.5-8.5) and grown on fibronectin-coated or FBS coated plates in CDM supplemented with Activin and FGF. […] Nevertheless, four EpiSC lines were derived out of 14 embryos of the Wistar strain and 1 EpiSC line was derived out of 20 embryos from the Sprague-Dawley strain using CDM supplemented with Activin alone.

[2] = tested on: Rat EpiSCs; test: Oct-4 immunostaining of rat EpiSCs grown in supplemented CDM; assay type: cell-based; details: after one week in CDM; 5B431542 10 uM; BMP4 10 ng/ml + 5B431542 10 uM; Activin 10 ng/ml + Noggin 100 ng/ml
Procedure: hESCs, mouse ESCs or EpiSCS were fixed for 20 minutes at 4° C. in 4% paraformaldehyde (PFA) and then washed three times in PBS. Cells were incubated for 20 minutes at room temperature in PBS containing 10% goat serum (Serotec) and subsequently incubated over night at 4° C. with primary antibody diluted in 1% goat serum in PBS as follows: SSEA-3 (1:100, Santa Cruz), SSAE-1 (1:25, gift from PW Andrews), Tra-1-60 (1:100, Santa CruZ), Oct-4 (1:100, SantaCruz), Sox2 (1:100, Abeam ab15830), Nanog (1:100, Abeam), Blirnpl (Abeam). Cells were then washed three times in PBS and incubated with fluorescein-Isothiocyanate-conjugated anti-mouse IgG or IgM (Sigma 1:200 in 1% goat serum in PBS) or rat IgM (Jackson laboratory 1:300 in goat serum in PBS) or rabbit IgG (Jackson laboratory 1:200 in donkey serum in PBS) for two hours at room temperature. Unbound secondary antibody was removed by 3 washes in PBS. Hoechst 33258 was added to the first wash (Sigma 1:10000).
Rat EpiSCs were grown in CDM supplemented in the presence of Activin (10 ng/ml), 5B431542 (10 uM), BMP4 10 ng/ml+5B431542 (10 uM) or Activin (10 ng/ml)+Noggin (IOOng/ml). After one week, the expression of the pluripotency marker Oct-4 was analysed using immunostaining. […] Similar results were obtained with mouse EpiSCs.

[3] = Rat Sprague-Dawley, 8.5 d.p.c, 37° C., fibro

B1: Activin: activin agonist growth factor, dimeric polypeptide stimulating the Activin/Nodal pathway (protein, UniProt P08476 311-426, looked up)
Inhibin beta A chain: GLECDGKVNICCKKQFFVSFKDIGWNDWIIAPSGYHANYCEGECPSHIAGTSGSSLSFHSTVINHYRMRGHSPFANLKSCCVPTKLRPMSMLYYDDGQNIIKKDIQNMIVEECGCS
B1 gave a Lines derived [1, 3] of 1, a Rate % [1, 3] of 5% and a Rate % ([1]; Rat Water (Wistar), 8.5 d.p.c, 38° C., FCS) of 35%.

B2: FGF4: growth factor added to rat epiblast cultures (protein, UniProt P08620 31-206, looked up)
Fibroblast growth factor 4: APTAPNGTLEAELERRWESLVALSLARLPVAAQPKEAAVQSGAGDYLLGIKRLRRLYCNVGIGFHLQALPDGRIGGAHADTRDSLLELSPVERGVVSIFGVASRFFVAMSSKGKLYGSPFFTDECTFKEILLPNNYNAYESYKYPGMFIALSKNGKTKKGNRVSPTMKVTHFLPRL
B2 was tested, and the “differentiation of early epiblast cultures” value ([1]; addition to CDM supplemented with Activin) was “induced differentiation”.

B3: Noggin: natural BMP inhibitor (protein, UniProt Q13253 28-232, looked up)
Noggin: QHYLHIRPAPSDNLPLVDLIEHPDPIFDPKEKDLNETLLRSLLGGHYDPGFMATSPPEDRPGGGGGAAGGAEDLAELDQLLRQRPSGAMPSEIKGLEFSEGLAQGKKQRLSKKLRRKLQMWLWSQTFCPVLYAWNDLGSRFWPRYVKVGSCFSKRSCSVPEGMVCKPSKSVHLTVLRWRCQRRGGQRCGWIPIQYPIISECKCSC
For B3, the “expression of the pluripotency marker Oct-4” value [2] was “did not decrease expression of Oct-4”.
